Source: patent publication EP1426444A2 (Technion Research & Development Co., Ltd., dated 2004)

Biological target: T1, KDR/flk-1 VEGF receptor of HUVEC cells (human, UniProt P35968 20-1356)
T1 construct: whole, on cells; Endogenous receptor on confluent HUVEC cells; also called the larger VEGF receptor of HUVEC cells
Experiment: overview table, row 'Binding to Flk-1 and Flt-1 receptors'

T1 sequence (P35968 20-1356): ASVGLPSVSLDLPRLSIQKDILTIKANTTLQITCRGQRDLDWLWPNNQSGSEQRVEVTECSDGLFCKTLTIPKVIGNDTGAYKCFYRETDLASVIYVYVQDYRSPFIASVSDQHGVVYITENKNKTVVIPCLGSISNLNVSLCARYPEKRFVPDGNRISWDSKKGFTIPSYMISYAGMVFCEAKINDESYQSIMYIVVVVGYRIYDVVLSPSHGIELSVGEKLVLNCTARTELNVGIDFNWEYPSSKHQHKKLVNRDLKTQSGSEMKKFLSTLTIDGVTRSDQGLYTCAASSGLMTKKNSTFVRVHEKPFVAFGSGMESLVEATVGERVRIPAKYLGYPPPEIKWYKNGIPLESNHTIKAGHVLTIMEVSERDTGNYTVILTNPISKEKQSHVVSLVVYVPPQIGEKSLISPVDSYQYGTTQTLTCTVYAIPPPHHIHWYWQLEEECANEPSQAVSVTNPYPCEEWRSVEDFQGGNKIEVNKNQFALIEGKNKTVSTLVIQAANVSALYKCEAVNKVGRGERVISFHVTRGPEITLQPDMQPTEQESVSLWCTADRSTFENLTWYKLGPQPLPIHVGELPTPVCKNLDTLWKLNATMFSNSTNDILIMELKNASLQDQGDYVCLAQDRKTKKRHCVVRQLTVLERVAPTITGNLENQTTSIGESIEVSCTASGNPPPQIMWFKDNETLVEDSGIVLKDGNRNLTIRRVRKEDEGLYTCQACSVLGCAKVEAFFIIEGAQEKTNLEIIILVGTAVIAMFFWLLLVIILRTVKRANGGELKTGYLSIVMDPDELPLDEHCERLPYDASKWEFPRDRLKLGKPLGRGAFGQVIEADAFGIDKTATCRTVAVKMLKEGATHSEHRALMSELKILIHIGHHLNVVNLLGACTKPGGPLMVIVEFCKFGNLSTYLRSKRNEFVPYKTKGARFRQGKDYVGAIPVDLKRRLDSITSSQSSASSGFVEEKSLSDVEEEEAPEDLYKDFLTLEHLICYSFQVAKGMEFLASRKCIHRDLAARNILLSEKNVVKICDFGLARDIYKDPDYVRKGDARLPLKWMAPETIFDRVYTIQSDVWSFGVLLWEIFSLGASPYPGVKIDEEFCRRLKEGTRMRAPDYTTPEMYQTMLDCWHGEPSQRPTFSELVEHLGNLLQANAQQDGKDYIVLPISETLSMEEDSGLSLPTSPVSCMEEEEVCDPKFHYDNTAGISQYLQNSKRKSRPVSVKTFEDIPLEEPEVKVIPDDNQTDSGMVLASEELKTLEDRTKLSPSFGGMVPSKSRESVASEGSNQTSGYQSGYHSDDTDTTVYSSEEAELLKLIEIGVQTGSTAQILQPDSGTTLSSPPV

| Binder | binding result |
| --- | --- |
| VEGF121 (ligand, human, UniProt P15692-9 27-147, looked up, mature) APMAEGGGQNHHEVVKFMDVYQRSYCHPIETLVDIFQEYPDEIEYIFKPSCVPLMRCGGCCNDEGLECVPTEESNITMQIMRIKPHQGQHIGEMSFLQHNKCECRPKKDRARQEKCDKPRR | binds |
| VEGF145 (recombinant, produced in Sf9 insect cells by baculovirus) (ligand, partially purified on heparin-sepharose; also called VEGF exons 1-5, 6a, 8) APMAEGGGQNHHEVVKFMDVYQRSYCHPIETLVDIFQEYPDEIEYIFKPSCVPLMRCGGCCNDEGLECVPTEESNITMQIMRIKPHQGQHIGEMSFLQHNKCECRPKKDRARQEKKSVRGKGKGQKRKRKKSRYKSWSVCDKPRR | binds |
